In the nanobody polyreactivity screen of Harvey et al. (2022):

Assay: yeast display, Sf9 membrane polyspecificity reagent, FACS + sequencing; frameworks hold sequencing errors
How it was run: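 Galactose induction of a Saccharomyces cerevisiae BJ5465 synthetic nanobody display library ran 36–48 hours. The cells were then stained for 1 hour at 4 °C with 10% biotinylated, detergent-solubilized Sf9 membrane reagent, pulled down on streptavidin microbeads and FACS-sorted into low and high (top ~1%) gates on expression and reagent-binding fluorescence. Labels for polyreactivity follow the gate of origin.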

Sequence | polyreactivity (PSR sort gate)
QVQLVESGGGLVQAGGSLRLSCAASGSIFLYNAMGWYRQAPGKESEFDAAISWSGVSTYYADSVKGRFTISRDNAKNTVYLHMNSLKPEDTAVYYCNAVYARVPIYDYWGQGTQVTVSS | low polyreactivity
QVQLVESGGGLVQAGGSLRLTCDASGRIFVHNAMGWYRQAPGKERELVAAISWSGSSTYYADSVKGRFTISRDNAKNSVYLQMNSLKPEDTAVYYCLGQGTQVTVSS | low polyreactivity
QVQLVESGGGLVQAGGSLRLSCAASGRIFHIYAMGWYRPAPGKERELVAAIRSSGGSTYYADSVKGRFTISRDNAMNTVYLQMNSLKPEDTAVYYCNKYVAYDYWGQGTQVTVSS | low polyreactivity
QVQLVESGGGLVQAGGSLRLSCAASGRTFGRYAKGWSRQAPGKERELVAAISYSTDSTYYADSVKGRFTISRDNAKNTDYLQMNSLKPEYTAVYYCATDSVNVGSYVGDKHDYWGHGTQVTVSS | low polyreactivity
QVQLVESGGGVVQAGGSLRLSGAASGTLDGNAMGWYRPAPGKERELVAAISRCGGRTYYADSVKGRFTISRDNAKNTVYLQMNSQKPEDTAVYYCNTVSKPGYAYNYWGQGTQVTVSS | high polyreactivity
QVQLVESGGGLVQAGGSLRLSCAASGGIYGNYAMGWYRQAPGKERELVADITTGGSTYYADSVKGRFTISRDNAKNTVYLQMNSLKPEDTAVYYCNARSLFHRFSSYKYDYWGQGTQVTVST | high polyreactivity
QVQLVESGGGLVQAGGSLRLSCAASGSIIGYYAMGWYRQAPGKECEFVAAITRSGARTYYADSLKGRFTISRDNAKNTVYLQMNSLKPEDTAVYYCAAGAYYRYTIEYDYWGQGTQVTVSS | high polyreactivity
QVQLVESGGGLVQAGGSLRLSCAASGRIFSRNAMGWYRQAPGKERELVAAITSGGSTYYADSVKGRFTISRDNAKNTVYLQMNSLKPEDTAVFYCAKRLTYYSWYHRYDYWGQGTQVTVLS | high polyreactivity
QVQLVESVGGLVQAGGSLRLSCAASGNIFYSYDMGWYRQAPGKERELVATISYRGTSTNYADSVKGRFTISRDNAKNTVYLQMNSLKPEDTAVYYCASDRGSHFARGSAYDYWGQGTQVTVSS | low polyreactivity
QVQLVESGGGLVQAGGSLRLSCAASGSIFNYYAMGWYRQAPGKERELVAAITSSDGRTFYADSVKGRFTISRDNAKNKVYLQMNSLKPEDTAFYYCAAEWTSRYSTYEYWGQGTQVTVSS | low polyreactivity
QVQRVESGGGLVLAGGSLRLSCAASAHIFAWYAMGWYRQAPGNERELVADISSRGGSTYYADSVKGRITISRDNAKNTVYLQMNSLKPEDTAVYSCAAVCYWTQDYDYWGQGTQVTVSS | low polyreactivity
QVQLVESGGCLVQAGGRLRLSCAASGSTFGRNAMGWYRQAPGKERELVAAISTSDGRTYYADSVKGRFTISRDNAKNTVYLQMNSLKPEDTAVYYCAADGETLPPRILGESEGDYWGQGTQVTVSS | low polyreactivity
QVQLVESGGGLVQAGGSLRLSCAASGRTFGIYVMGWYRQAPGKEMEWVAAIRGGGTTYYADSVKGRFTISRENAKNTVYLQMNSLKPEDTAVYYCAAVVKWWGQSRYDYWGQGTQVTVSS | high polyreactivity
QVQLVESGGGLVQAGGSLRLSCAASGSTFHRYAMGWYRQAPGKERELVATINLNTGSTYADSVKGRFTISRDNAKNTVYLQMNSLKPEDTAVYYCAAYGRWPFTWYNYWGQGTQVTVSS | low polyreactivity
QVQLVESGGGLVQAGGSLRLSCAASGSIFSRYTRGWYRQAPGKEWELVASISRRGGRTYYADSVKGRFTISRDNAKNTVYLQMNSPKPEDTAVYYCNARGHGSAVGPFTRVNSWGQGTQVTVSS | high polyreactivity
QVQLVESGGGLVQAGGSLRLSCAASGSTFYYYAMGWYRQAPGKERELVASINYSAGRTYYADSVKGRFTISRDNAKNTVYLQMNSLKPEDTAVYYCATGYPYHVNRYYYWGQGTQVTVSS | high polyreactivity
QVQLVESGGGLVQAGGSLRLSCAASGSIFRPNTMGWYRQATGKERELVADIRYRGGGTYYADSVKGRFTITRDNATNTVYLQMNSLKPEDTAVYYCAKASAQWVQFDFWGQGNQVTVSS | high polyreactivity
QVQLVESGGGLVQAGGSLRLSCAASGSTFIIYAMGWYRQEPGKEREFVATITGRGGRTYYAVSVKGRFTISRDNAKNTVYLQMNSLKPEDTAVYYCAKGLGSGQEIYGYDYGGQGTQVTVSS | high polyreactivity
QVQLVESGGGLVQAGGSLRLSCAASGYIFTTNAMGWYRQAPGKERELVAAISSSGGSTYYADSVKGRFTISRDNAKNTVYLQMNSLKPEDTAVYYCAVRRSTGSRSPPMYYWGQGTQVTVSS | high polyreactivity
QDQLVESVGGLVQAGGSLRLSCAASGNTFRSYVLGWYRQAPGKERELVADISSGDGTNYADSVKGRFTISRDNAKNTVYLQMNSLKREDTAVYYCAKDVYNFRTTHSYFTGYDSWGQGTQVTVSS | low polyreactivity
QVQLVESGGGLVQAGGSLRLSCAASGFIFKDNARGWYRQATGKEREFVASITASGGSTTYADSVKGRFTISRDTAKNTVYLQMTSLKPEDTAVYYCAARVGWNKRRYDYWGQGTQVTVSS | low polyreactivity
QVQLVESGGGLVQAGGSLRLSCAASGNIFSDYTMGWYRQAPGEERELVAAISGEGGTTYNADSVKGRFTISRDNAKNTVYLQMNRLKPEDPAVYYCAADGYYHAYDQFFIVYYEYDYWGQGTQVTVSS | low polyreactivity
